Peptide text beside a SMILES is read from it. * marks the point of attachment. DOTA = O=C(O)CN1CCN(CC(=O)O)CCN(CC(=O)*)CCN(CC(=O)O)CC1
Assay: Biodistribution experiments in normal mice
Type: in vivo, ddY mice
Settings: mouse, in vivo, iv
Procedure: Experiments with animals were conducted in strict accordance with the Guidelines for the Care and Use of Laboratory Animals of Kanazawa University. The animal experimental protocols used were approved by the Committee on Animal Experimentation of Kanazawa University (Permit Number: AP-132633). Biodistribution experiments were performed after an intravenous administration of each diluted tracer solution (37 kBq/100 µL) to 6-week-old male ddY mice (27–32 g, Japan SLC, Inc., Hamamatsu, Japan). To investigate the effect of an excess amount of bisphosphonate on biodistribution, alendronate (20 mg/kg) was intravenously administered to mice 1 minute before the intravenous injection of ^67Ga-DOTA-(Asp)14 or ^67Ga-DOTA-Bn-SCN-HBP. Four to six mice each were sacrificed by decapitation at 10, 60, and 180 minutes post-injection. Tissues of interest were removed and weighed. Complete left femurs were isolated as representative bone samples, radioactivity was determined using an auto well gamma counter, and counts were corrected for background radiation and physical decay during counting.

Row | Compound | accumulation of radioactivity in the femur (in words)
1 | O=C(O)C[C@H](NC(=O)[C@H](CC(=O)O)NC(=O)CN1CCN(CC(=O)O)CCN(CC(=O)O)CCN(CC(=O)O)CC1)C(=O)O [67Ga-DOTA-(Asp)2, metal not drawn] ({DOTA}-Asp-Asp-OH) | hardly accumulated in the femur
2 | O=C(O)C[C@H](NC(=O)[C@H](CC(=O)O)NC(=O)[C@H](CC(=O)O)NC(=O)[C@H](CC(=O)O)NC(=O)[C@H](CC(=O)O)NC(=O)[C@H](CC(=O)O)NC(=O)[C@H](CC(=O)O)NC(=O)[C@H](CC(=O)O)NC(=O)CN1CCN(CC(=O)O)CCN(CC(=O)O)CCN(CC(=O)O)CC1)C(=O)O [67Ga-DOTA-(Asp)8, metal not drawn] ({DOTA}-DDDDDDDD-OH) | higher accumulation
3 | O=C(O)C[C@H](NC(=O)[C@H](CC(=O)O)NC(=O)[C@H](CC(=O)O)NC(=O)[C@H](CC(=O)O)NC(=O)[C@H](CC(=O)O)NC(=O)CN1CCN(CC(=O)O)CCN(CC(=O)O)CCN(CC(=O)O)CC1)C(=O)O [67Ga-DOTA-(Asp)5, metal not drawn] ({DOTA}-DDDDD-OH) | moderate accumulation

Reference: publication PMC3877283, “Development of Novel Radiogallium-Labeled Bone Imaging Agents Using Oligo-Aspartic Acid Peptides as Carriers” (PLoS ONE, 2013)
